Reference: patent US20190367618A1 (SHANGHAI JUNSHI BIOSCIENCES, published 2019)

What was measured:
hPD-L1-his = biological target: T1, hPD-L1-his (human, UniProt Q9NZQ7 19-238, limits assumed); assay: ELISA, hPD-L1-his coated, anti-human IgG (Fc-specific)-peroxidase detection
T1 construct: also called human PD-L1; not shown: his tag

[1] = biological target: T2, human PD-L1 (ELISA coat, construct not stated) (human, UniProt Q9NZQ7 19-238, limits assumed); assay: ELISA, PD-L1 coated
T2 construct: also called human PD-L1 protein
T2 sequence (Q9NZQ7 19-238 limits assumed): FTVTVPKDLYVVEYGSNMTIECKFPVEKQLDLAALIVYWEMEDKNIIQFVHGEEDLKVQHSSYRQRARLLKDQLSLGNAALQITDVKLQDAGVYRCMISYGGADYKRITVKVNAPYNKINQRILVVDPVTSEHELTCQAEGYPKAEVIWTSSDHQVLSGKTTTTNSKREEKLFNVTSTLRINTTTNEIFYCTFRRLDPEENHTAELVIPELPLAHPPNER
Description: A 96-well microtiter plate was plated, coated with PD-L1, and incubated at 37° C. for 60 minutes. The solution in the wells was then discarded, and the wells were washed 3 times with washing buffer, and blocked with PBS containing 2% BSA for 60 minutes. After washed 3 times with washing buffer, each well was added with 100 μl of biotin-labeled IgG4 antibody, incubated at 37° C. for 30 minutes, washed 3 times with washing buffer, then added with humanized antibodies of different dilutions, and incubated at 37° C. for 1 hour. After washed 3 times with washing buffer, the cells were incubated with HPR-labeled mouse anti-human IgG (H+L) (diluted 1:10000 with washing buffer) at room temperature for 1 hour, washed 3 times with washing buffer, and then added with 100 μl of TMB substrate for development. After reacting for 30 minutes at room temperature, the reaction was terminated with 100 μl of 2 M hydrochloric acid solution and the absorbance was read at 450 nm.

PD-L1 on CHO cells = PD-L1 on CHO cells (human, UniProt Q9NZQ7 19-290); assay: cell-based or functional assay
Sequence of PD-L1 on CHO cells (Q9NZQ7 19-290): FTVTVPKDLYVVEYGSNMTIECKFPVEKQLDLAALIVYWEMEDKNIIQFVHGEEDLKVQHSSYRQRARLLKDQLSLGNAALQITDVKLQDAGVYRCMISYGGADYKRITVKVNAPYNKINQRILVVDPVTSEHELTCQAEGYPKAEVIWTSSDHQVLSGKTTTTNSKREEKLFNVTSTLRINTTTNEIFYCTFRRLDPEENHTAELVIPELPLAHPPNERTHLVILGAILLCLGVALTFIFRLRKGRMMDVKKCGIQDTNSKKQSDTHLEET

PD-L1 on 293F cells = biological target: T3, PD-L1 on 293F cells (UniProt Q9NZQ7 19-290, limits assumed); assay: flow cytometry on 293F cells expressing PD-L1
T3 construct: whole, on cells
T3 sequence (Q9NZQ7 19-290 limits assumed): as the sequence (Q9NZQ7 19-290) above
Description: Antibody (humanized antibodies 30, 38) dilutions at different concentrations was added in a volume of 50 μl, mixed and incubated at room temperature for 30 min. The cells were washed twice with FACS buffer, contacted with 100 μl of goat anti-human IgG-PE antibody, and incubated for 30 min in the dark. FACS was performed after washing twice with FACS buffer.

[2] = biological target: T4, human PD-L1 extracellular domain protein (human, UniProt Q9NZQ7 19-238, biotin (biotin-NHS, molar ratio 1:10) where used as biotin-labeled human PD-L1 (Examples 2, 3, 5, 12, 17)); assay: flow cytometry, inhibition of biotin-PD-L1 (1 µg/ml) binding to PD-1 on 293F cells
T4 construct: extracellular domain; About 75 kDa on SDS-PAGE; also called human PD-L1 recombinant protein; biotin-labeled human PD-L1
T4 sequence (Q9NZQ7 19-238): as the sequence (Q9NZQ7 19-238 limits assumed) above

[3] = biological target: T4, human PD-L1 extracellular domain protein; assay: ForteBio (BLI)

T1 sequence (Q9NZQ7 19-238 limits assumed): as above

Row | EC50 (hPD-L1-his) [µg/mL] | EC50 [1] [µg/mL] | EC50, Jurkat fluorescein (PD-1/NFAT-luciferase reporter) analysis (PD-L1 on CHO cells) [µg/mL] | EC50 (PD-L1 on 293F cells) [µg/mL] | IC50 [2] [µg/mL] | Kd [3] [nM] | Molecule
1 | 0.0216 |  |  |  |  |  | durvaluma (antibody)
2 |  | 0.000837 | 0.082 | 0.348 | 0.889 |  | humanized antibody 38 (antibody, V domains shown) VH: QGQLQESGPSLVKPSQTLSLTCTVSGDSITRGYWNWIRKPPGKGLEYIGYISYTGSTYSNLSLKSRVTISRDTSKNQYYLKLSSVTAADTAVYYCATSTGWLDPVDYWGQGTLVTVSS VL: DIQMTQSPSSLSASVGDRVTITCRASQNVDTSVAWFQQKPGKAPKALIYSASFRYSGVPSRFSGSGSGTDFTLTISSLQPEDFATYFCQQYYGYPFTFGQGTKLEIK
3 | 0.0111 | 0.000558 | 0.0782 | 0.287 | 0.647 |  | humanized antibody 30 (antibody, V domains shown) VH: QGQLQESGPSLVKPSQTLSLTCTVSGDSITRGYWNWIRKHPGKGLEYIGYISYTGSTYSNLSLKSRVTISRDTSKNQYYLKLSSVTAADTAVYYCATSTGWLDPVDYWGQGTLVTVSS VL: DIVMTQSPDSLAVSLGERATINCKASQNVDTSVAWFQQKPGQPPKALIYSASFRYSGVPDRFSGSGSGTDFTLTISSLQAEDVAVYFCQQYYGYPFTFGQGTKLEIK

Further lines, the molecule ahead of its results:

Row | Molecule | EC50 (hPD-L1-his) [µg/mL] | EC50 [1] [µg/mL] | EC50, Jurkat fluorescein (PD-1/NFAT-luciferase reporter) analysis (PD-L1 on CHO cells) [µg/mL] | EC50 (PD-L1 on 293F cells) [µg/mL] | IC50 [2] [µg/mL] | Kd [3] [nM]
4 | clone 21 (murine antibody 21) (antibody, V domains shown, Murine hybridoma antibody) VH: EGQLQESGPSLVKPSQTLSLTCSVTGDSITRGYWNWIRKFPGNKFEYMGYISYTGSTYSNLSLKSRISITRDTSKNHYYLRLNSVTTEDTATYYCATSTGWLDPVDYWGQGTLVTVSA VL: DIVMTQSRKFMSTSVGDRASVTCKASQNVDTSVAWFQQKPGQSPKALIYSASFRYSGVPDRFTGSGSGTDFTLTISNVQSEDLAEYFCQQYYGYPFTFGSGTKLEIK |  |  |  |  |  | 0.9
5 | clone 16 (murine antibody 16) (antibody, V domains shown, Murine hybridoma antibody) VH: EVQLQQSGPELVKPGASVKMSCKASGYTFTNYVIHWVKQTPGQGLEWIGYINPNIDGGSYNEKFNGKAKMTSDKSSSTVHMELRSLTYEDFAVYYCAKPRGSWGQGTLVTVSA VL: DIVLTQSPASLAVSLGQRATISCRASESVEFYGTSLMQWYQQKPGQPPKLLIYAASNVDSGVPARFSGSGSGTDFSLNIHPVEEDDIAMYFCQQGRHVPYTFGGGTKLEIK |  |  |  |  |  | 0.5
